Data taken from patent publication US20180296639A1 (Hoffmann-La Roche, published 2018).

B1: glyceraldehyde-3-phosphate dehydrogenase (GAPDH), human, endogenous in human retinal pericytes (hRP) (enzyme)
chain: not shown
notes: Endogenous protein in lysates of human retinal pericytes; The proposed model says GAPDH is S-nitrosylated when it associates with Siah1
B2: E3 ubiquitin ligase seven in absentia homolog 1 (Siah1), human, endogenous in human retinal pericytes (hRP) (enzyme)
chain: MSRQTATALPTGTSKCPPSQRVPALTGTTASNNDLASLFECPVCFDYVLPPILQCQSGHLVCSNCRPKLTCCPTCRGPLGSIRNLAMEKVANSVLFPCKYASSGCEITLPHTEKADHEELCEFRPYSCPCPGASCKWQGSLDAVMPHLMHQHKSITTLQGEDIVFLATDINLPGAVDWVMMQSCFGFHFMLVLEKQEKYDGHQQFFAIVQLIGTRKQAENFAYRLELNGHRRRLTWEATPRSIHEGIATAIMNSDCLVFDTSIAQLFAENGNLGINVTISMC
notes: Endogenous protein in lysates of human retinal pericytes, immunoprecipitated with an anti-Siah1 antibody

What was measured:
[1] = target: B2; experiment: co-immunoprecipitation from hRP lysates: IP anti-Siah1, western blot anti-GAPDH
[2] = target: B1; experiment: as above

**Q.** B1 was tested. Which “fold increase in GAPDH/Siah1 association (high glucose against osmotic control)” value [1] did it give?
**A.** 1.5 fold

**Q.** Does B2 bind [2]?
**A.** binds
